Reference: PMC3092763, “Urate Oxidase Purification by Salting-in Crystallization: Towards an Alternative to Chromatography” (PLoS ONE, 2011)

Molecular target: the molecule itself
Experiment: SEC; analytical SEC of the pools of the downstream process; Superdex 200 GL, 50 mM sodium phosphate buffer pH 8, UV detection at 226 and 280 nm; column calibrated with seven proteins of 13.7 to 669 kDa; oligomer size from the calibration (with IEF profile and activity test as support)

B1: recombinant urate oxidase from Aspergillus flavus (rasburicase) (enzyme, UniProt Q00511 1-302, looked up)
chain: MSAVKAARYGKDNVRVYKVHKDEKTGVQTVYEMTVCVLLEGEIETSYTKADNSVIVATDSIKNTIYITAKQNPVTPPELFGSILGTHFIEKYNHIHAAHVNIVCHRWTRMDIDGKPHPHSFIRDSEEKRNVQVDVVEGKGIDIKSSLSGLTVLKSTNSQFWGFLRDEYTTLKETWDRILSTDVDATWQWKNFSGLQEVRSHVPKFDATWATAREVTLKTFAEDNSASVQATMYKMAEQILARQQLIETVEYSLPNKHYFEIDLSWHKGLQNTGKNAEVFAPQSDPNGLIKCTVGRSSLKSKL
notes: urate oxidase (uricase, EC 1.7.3.3) from Aspergillus flavus, recombinant form (rasburicase); subunit of about 34 kDa, 135 kDa tetramer of identical subunits; Several isoforms are seen by IEF even in the purest pool; also called Fasturtec; Elitek; source: expressed in a genetically modified Saccharomyces cerevisiae strain; supplied by Sanofi-Aventis, sampled at different steps of the downstream …
  stoichiometry N: 4
